Laboratory results as given in the nanobody polyreactivity screen of Harvey et al. (2022).

experiment: yeast display, Sf9 membrane polyspecificity reagent, FACS + sequencing; frameworks hold sequencing errors
Summary of the method: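 After 36–48 hours of galactose induction, yeast (Saccharomyces cerevisiae BJ5465) displaying a synthetic nanobody library were stained at 4 °C for 1 hour with 10% biotinylated, detergent-solubilized Sf9 membrane reagent. Streptavidin microbeads enriched the stained cells before FACS sorting into low and high (top ~1%) gates on anti-HA and streptavidin fluorescence. Each clone's polyreactivity label reflects its gate of origin.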

| Sequence | polyreactivity (PSR sort gate) |
| --- | --- |
| QVQLVESGGGLVQAGGSLRLSCASSGLIFRVYNMGWYRQAPGKERELVAAITGRGGRTYYADSVKGRFTISRDNAKNTVYLQMNSLKPEDTSVYYCATGGRFQQAAYTGFNYWGQGTQVTVSS | high polyreactivity |
| QVQLVESGGGLVQAGGILRLSCAASGSIFVGNAMGGYRQAPGKERELVATISWSGGSTYYADSVKGRFTISRDNAKNTVYLQMNCLKPEDSAVYYCAKTPYRRYRYGGYTYRTYDYWGQGTQVTVSS | low polyreactivity |
| QVQHVESGGGLVQAGGSLRLSCAASGRTYRYNAMGWYRQAPGKETELVAAITGGGSTNYADSVKGRFTISRDNAKYTVYLQMNSLKPEDTAVYYCATGGFKYWWLYPYDYWGQGTQVTVSS | low polyreactivity |
| QVQLVESGGGLVQAGGSLRLSCAASGSLFDHYAMGWYRQEPGTERELVARISWSGGSTYYADSVKGRFTISRDNAKNTVYLQMNRLKPEDTAVYYCARAGRSWDTLYKYYLEHDYWGQGTQVTVSS | low polyreactivity |
| QVQLVESGGGIVQAGGSLRLSCAASGRSFYRYARGWDRQAPGKERELVASITRSGITHYADSVKGRFTISRDNAKNPVYLQMISLKPEDTAVYYCNGRRGSPAPYDYWGQGTQVTVSS | high polyreactivity |
| QVQLVDSGGGLVQAGGSLRLSCAASGFTFYANAMGWYRQAPGTERELVAALSRGVSPTYADSVKGRFTISRDNGKNTVYLEMNSLKPEDTAVYYCASDGNVIAQGYDYWGQGTQVTVSS | low polyreactivity |
| QGQLVESGGGLVQAGGSLRLSCAASGSIVFYYGMGWYRQAPGKERELVAAITWSGDSPYDADSVKGRFTISRDNAKNTVYLQLNSLKPEDTAVYYCNADQTSYYYPGNYDYWGQGTQVTVSS | high polyreactivity |
| QVQLVESGGGLVQAGGSLRLSCAASGSTFPYNAMGWYRQAPGKERELVAAITWRAGRTYYADSVKGRFTISRDNAKNTVYLQMNSLKPEDTAVYYCAKSYQRGVNHYEYWGQGTQVTVSS | high polyreactivity |
| QVQLVESGGGLVQAGCSLRLSCAASGSTFKRYAMGWYRQAPGKERELVASISSGGSTNYADSVKGRFTISRDNAKNTVYLQMNSLKPEDTAVYYCATRGHYRQTINYWGQGTQVSVSS | high polyreactivity |
| QFQLVESGGGLVQAGGSLRLSCAASGSTFQWYAMGWYRQAPGKERELVAAINKSGGTTYYADSVKGRFTISRDNAKNTVYLQMNSLKPEDTAVYYCATDNPVVYQPGNMDYWGQGTQVTVSS | low polyreactivity |
| QVQLVESGGGLVQAGGSLRLSCAASGYTFVLYAMGWYRQAPGKERELVAAIRWSGGTTYYADSVKGRFTISRDNAKNTVYCQMNSLKPEDTAVYYCAGWDYTGNVVTGDYWGQCTQVTVSS | high polyreactivity |
| QLLLVESGGGLVQAGGSLRLSCATSGIILRYYAMGWYRQAPGKERELVAAISGSGTRTYYADSVKGRFTISRDNAKNTVYLQMNSLKPEDTAVYYCAAAHPATRYDYWGQGTQVTVSS | high polyreactivity |
| QVQHVESGGGLVQAGGSLRLSCAASGLIFVRYAMGWYRQAPGKERELVATITWSGGTTYADSVKGRFTISRDNAKNTVYLQMNSLKPEDTAVYYCAVEWPAWTDSDYPVGGHAFGYWGQGTQVTVSS | low polyreactivity |
| QVQLVESGGGLVQAGGSLRLSCAASGRIFRFYAMGWYRQAPGKERELVAAITYGGGTTYYADSVKGRFTISRDNAKNTVYLQMNSLKPEDTAVYYCAADHRQGYDHEYDYWGQGTQVTVSS | low polyreactivity |
| QVLLQESGGGLVQAGVSLRLCCAASGYISGDQFMGWYRQAPGKEREFVAGIGNGTNTNYADSVKGRFTTSRDNAKNTVYLQMNSLKQEDTAVYYCAADPSDGSTLAYWGHGTQVTVSS | high polyreactivity |
| QVQLVESGGGLVQAGGSLRLSCAASGSISGYYDMGWYRQAPGKEREFVAAISLSTTSTYYADSVKGRFTISRDNAKNTVYLQMNSLKPEDTAVYYCATDIVGPHFDYWGQGTQVTVSS | low polyreactivity |
| QVQIVESGGGLVQAGGSLRLSCAASGRIYRYVMGWYRQAPGKERELVATITGSGGSTYYADSVKGRFTISRDNAKNTAYLQMNSLKPEDTAVYYCAAAGRGSWTTYRFDYWGLGTQVTVSS | high polyreactivity |
| QVQLVESGVGLVQAGGSVRLSCAASGSIFSINAMGWYRQAPGKERELVAAISASGGSTYYADSVKGRFTISRDNAKNTVYLQMNSLKPEDTAVYYCAVYTHDRFSRYDQGDYWGQATQVTVSS | low polyreactivity |
| QVQLVESGGGLVQAGGSLRLSCAASGRIFGYYVMGWYRQAPGKERELVAAISRSGGSTYYADSVKGRFTISRDNAKNTVYLQMNSLKPEDTAVYYCAKRVCTYGFSGYDYWGQGTQVTVSS | high polyreactivity |
| QVQLVESGGGLVQAGGSLRLSCAASGSTFTRNAMGWYRQAPGKERELVAAISSSGGRTYYADSVKGRFTISRDNAKNTVYLQMNSLKPEDTAVYYCAAGIRTSAGYDYWGQGTQVTVSS | high polyreactivity |
| QVQLVESGGGLVQAGGSLRLSCAASGFTFSSNAMGWYRQAPGKERELVAVIDSGDITNYADSVKGRFTISRDYAKNTVYLQMNSLKPEDTAVYYCAADSYSYFTDDHGYWGQGTQVTVSS | high polyreactivity |
| QVQLVESGGGLVQAGGSLRLSCAASGYTFPRYTMGRYRQAPGKERELVAVIRRSGGTHYADSVKGRFTISRDNAKNTVYLLMYSLNPVDIAVYYCAVVSLLQNIPYGFWGQGTQVTVSS | high polyreactivity |

| Sequence | polyreactivity (PSR sort gate) |
| --- | --- |
| QVQLVESGGGLVQAGGSLRLSCAASGSNLLRYAMGWYRQAPGKERELVAAIRTIGASTNYADSVKGRYTISRDNAKNTVYLLMNSMKPEDTAVYYCNSYLAEVLPVGKGRLYDYWGQGTQVTVSS | low polyreactivity |
| QVQLVQSGGGLVQAGGSLRLSCAASGSTFSQYVMGWYRQARGKERELVAAINKNGGRTYYADSVKGRFTISRDNAKNTVYFQMISLKPEDTAVYYCAADVYGQDDYWGQGTQVTVSS | high polyreactivity |
| QVQLVESGGGLVQAGGRLRLSCAASGRIFERYAMGWYRQAPGKERELVATISTSGGSTYYADSVKGRFTISRDNAKNTVYLQMNSLKPEDTAVYYCAAPYQRRRYYYWGQGTKVTVSS | high polyreactivity |
| QVQLVESVGGLVQAGGSLRLSCAASGSTYDHNAMGWSRHAPGKERELVAAISSDGSTNYADSVKGRFTISRDNAKNTVYLQMNSLKPEDTGVYYCNADGVYLGDYEYWGQGTQVTVSS | low polyreactivity |
| QVQLVESGGGLVQAGGSLRLSCAASGRTFPGYAMGWYRQAPGKERELVAVISWSGGRTNYADSVKGRFTISRDNAKNTVYLQMNSLKPEDTAVYYCAARYHGHSNDYWGQGTQVTVSS | low polyreactivity |
| QVQLVESGGGLVQAGGSLRLSCAASGSTLFNYTMGWYRQAPGKESELVAAISSGGSTNYADSEKGRFTISRDNAKNTFYLQMNSLKPEDTAVYYCATDHDPWSWYRYDYWGQGTQVTVSS | low polyreactivity |
| QVQLVESGGGLVQAGGSLRLSCAASGRTSYVYAMGWYRQAPGKERELVAAITSSGGSTYYADSVKGRFTISRDNAKNTVYLQMNSLKPEDTAVYYCAAETYPVWGVAFYYWGQGTQVTVSS | high polyreactivity |
| QVQLVESGGGLVQAGGSLRLSCAASGSIFYVYAMGWYRQAPGKERELVAAITSSGTTNYADSVKGRFTISRDNAKNTVYLQMNSLKPEDTAVYYCAADPDSGQVPFDYWGQGTQVTVSS | low polyreactivity |
| QVQLVESGGGLVQAGGSLRLSCAASGITFGYYAMGWYRQAPGKERELVAAITWSGGSTYYADSVKGRFTISRDNAKNTVYLQMNSLKPEDTAVYYCNADRFGRAHVYPEFDYWGQGTQVTVSS | low polyreactivity |
| QVQLVESGGGLVQAGGSLRLSCAASGSTSRYYDMGWYRQAPGKERELVAAITWSGGTTYYADSVKGRFTISRDNAKNTVYLQMDSLKPEDTAVYYCAVDSQTANDYDYWGQGTQVTVSS | low polyreactivity |
| QVQLVESGGGLVQAGGSLRLSCAASGFNFVYYAMGWYREAPGKERELVAVISWSGGSTNYADSVKGRFTISRDNAKNTVYLQMNSLKPEDTAVYYCAADAYAYTPYYGYRVDYWGQGTQVTVSS | high polyreactivity |
| QVQLVESGGGLVQAGGSLRLSCAASGRILVSYAMGGYRQAPGKERELVAAISRSGGSTYYADSVKGRFTISLDTAKNTVYLQMNSLKPEDTAVYYCNVYRFSRYDYWGQGTLVTVSS | high polyreactivity |
| QVQLVESGGGLVQAGGSLRLSCAASGRIFKSYAMGWDRQAPGKERELVAAISRSGGRTYYADSVKGRFTISRDNAKNTVYLQMNSLKPEDTAVYYCAATTIVAPYWGQGTQVTVSS | low polyreactivity |
| QVQLVESGGGLVQAGGSLRLICAASGLTFWYYAMGWYRQAPGKERELVARITRSGVGTYYADSVKGRFTISRDNAKHTVYLQMNSLKPEDTAVYYCNARYQYSWVRYGYDYWGQGTQVTVSS | high polyreactivity |
| QVQLVESGGGLVQAGGILRLICAASGSIFGKYTMGWYRHAPGKERELVAGITYRAGSTYYADSVKGRFTISRDNAKNTVYLQMNSLKPEDTAVYYCAARFYFRWYYYGSYANYWGQGTQVTVSS | high polyreactivity |
| QVQLVESGGGLVQAGGSLRLSCAASGFTLARYAMGWYRQATGKERELVAAITKRGGSTYYADSVKGRFTISRDNAMNTVYLQMNSLKPEDTAVYYCATYKRSSHYDYWGQGTQVTVSS | high polyreactivity |
| QVQLEDSGGGLVQAGRSLLLSFAASGNTFWLNAKGRYRQAPGKERELVAAITYTDGSTYADSVKGRFTISRDNAKITVYLQMNSLKPEDSAVYYCAARYQWDWRDYYYWGQGTQVTVSS | low polyreactivity |
| QVQLVESGGGLVQAGGSLRLSCAATGSTFAHNSMGWYRQAPGKESQFVAAISARGGMTYYADSVKGRFTISRDYAKNTVYLQMNSLKPEDTAVYYCAAVFGDYWSSQWSYAYGYWGQGTQVTVSS | high polyreactivity |
| QVQLVESVGGLVQAGGSLRLSCAASGNNFDIYDMGWYRQAPGKERELVAAISSGGSTYYADSVKGRFTISRDTAKNTVYFQMNSLKPEDSAVYYCAESRVGYYRYEYWGQGTQVTVSS | low polyreactivity |
| QVQLVESGGGLVQAGGSLRLSCAASGSTFTTYAMGWYRQAPGKEREFVASIRWRGGHTYYADSVKGRFTISRDNAKNTVYLQMNSLKPEDTAVYFCARRVDYISSKYGYWGQGTQVTVSS | high polyreactivity |
| QVQLVESGGGLVQAGGSLRLSCAPSGRSFASYAMGWYRQAPGKERELVAAISKSGGRTYYADSVKGRFTISRDNAKNTVYLQMNSLKPEDTAVYYCAAYFWTRSGTPNYDYWGQGTQVTVSS | high polyreactivity |
